Data reported in patent US20200255542A1 (Merck Sharp & Dohme, published 2020).

Key:
rhesus monkey FXIa = biological target: T1, rhesus monkey FXIa (rhesus monkey, UniProt F6PJ95 19-624); test: SPR (ProteOn XPR36), antibody captured by anti-human IgG Fc, FXIa as analyte; mean ± SD, N=3
T1 construct: also called NHP FXIa
Procedure: (§1) After capture of anti-FXI antibodies, running buffer (1×HBS-N, 5 mM CaCl₂, 0.005% P20, pH 7.4) was injected across all horizontal flow channels (A1-A6) for 5 minutes and allowed to dissociate for 20 minutes at 25 μL/min to remove any non-specifically bound anti-FXI antibodies from the chip surface.
(§2) After capture of anti-FXI antibodies, running buffer was injected across all horizontal flow channels (A1-A6) for 5 minutes and allowed to dissociate for 20 minutes at 25 L/minutes to remove non-specifically bound anti-FXI antibodies from the chip surface.

cynomolgus monkey FXIa = biological target: T2, cynomolgus monkey FXIa (cynomolgus monkey, UniProt A0A2K5VVW4 19-624); test: as above
T2 construct: also called NHP FXIa
Procedure: as §1, §2

human FXIa [1] = biological target: T3, human FXIa (human, UniProt P03951 19-625); test: as above
T3 construct: also called Factor XIa
Procedure: as §1, §2

[2] = biological target: T4, human coagulation Factor XI (FXI) zymogen (human, UniProt P03951 19-625); test: cell-based or functional assay
[3] = biological target: T5, Human Factor XIIa Protease (human, UniProt P00748 20-615, limits assumed); test: SPR (Biacore T200), mAb captured on anti-human IgG (Fc) chip, single analyte concentration;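 also: Anti-FXI mAbs captured about 500 RU, anti-RSV mAb as reference, coagulation cascade proteins injected at 500 nM (FXI 5 nM), 25 °C, HBS-EP+ pH 7.4, 1:1 fit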
T5 construct: also called FXIIa; Human Factor Xlla Protease
T5 sequence (looked up): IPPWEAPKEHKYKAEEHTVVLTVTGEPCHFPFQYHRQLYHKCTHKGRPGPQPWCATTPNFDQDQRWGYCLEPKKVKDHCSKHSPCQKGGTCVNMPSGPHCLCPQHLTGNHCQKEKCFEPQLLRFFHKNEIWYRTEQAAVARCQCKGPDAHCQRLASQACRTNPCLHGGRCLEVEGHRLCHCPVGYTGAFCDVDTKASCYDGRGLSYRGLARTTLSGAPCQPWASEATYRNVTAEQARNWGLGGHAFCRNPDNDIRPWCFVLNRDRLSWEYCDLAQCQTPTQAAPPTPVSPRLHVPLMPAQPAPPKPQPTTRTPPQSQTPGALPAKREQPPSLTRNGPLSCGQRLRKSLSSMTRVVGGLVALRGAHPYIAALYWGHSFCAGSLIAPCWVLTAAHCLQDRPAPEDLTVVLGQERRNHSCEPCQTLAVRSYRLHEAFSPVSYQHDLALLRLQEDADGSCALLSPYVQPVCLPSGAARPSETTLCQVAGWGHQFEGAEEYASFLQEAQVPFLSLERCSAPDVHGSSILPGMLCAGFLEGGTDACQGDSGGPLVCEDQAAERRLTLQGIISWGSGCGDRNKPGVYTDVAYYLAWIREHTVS
Procedure: (§3) Anti-FXI mAbs were captured on a CM5 sensor chip immobilized with anti-human IgG (Fc) capture kit (GE Healthcare) at approximately 500 RU to minimize potential background from co-purifying Igs in plasma derived proteins. Negative control antibody, anti-respiratory syncytial virus (RSV) monoclonal antibody (mAb), was used as a reference and to help reduce background binding of plasma-derived proteins. Binding kinetics was measured using an analyte concentration of FXI at 5 nM; all other coagulation cascade proteins were used at an analyte concentration of 500 nM. Single concentration injections (n=2) were run at 30 μL/min, 25° C., HBS-EP+, pH 7.4.
(§4) Biacore T200 evaluation software was used to fit data to a 1:1 binding model to determine the association rate constant, kₐ (M⁻¹ s⁻¹, where “M” equals molar and “s” equals seconds) and the dissociation rate constant, kd (s⁻¹). These rate constants were used to calculate the equilibrium dissociation constant, KD (M).

[4] = biological target: T6, Rhesus monkey plasma Kallikrein (rhesus monkey, UniProt A0A1D5Q7U7 20-638); test: as above
T6 construct: Recombinant, Merck Sharp & Dohme; also called NHP plasma kallikrein; lot 00AJF; not shown: C-terminal His tag

[5] = biological target: T7, Human Factor IXa Protease (human, UniProt P00740 47-191; P00740 227-461); test: as above
T7 construct: also called FIXa; HFIXa 1080
Procedure: as §3, §4

[6] = biological target: T8, Cynomolgus monkey plasma Kallikrein (cynomolgus monkey, UniProt A0A2K5VTJ9 20-638); test: as above
T8 construct: Recombinant, Merck Sharp & Dohme; also called NHP plasma kallikrein; lot 65AJE; not shown: C-terminal His tag

[7] = biological target: T9, Human Factor VIIa Protease (human, UniProt P08709 61-466); test: as above
T9 construct: also called FVIIa; HCVIIA-0031
T9 sequence (looked up): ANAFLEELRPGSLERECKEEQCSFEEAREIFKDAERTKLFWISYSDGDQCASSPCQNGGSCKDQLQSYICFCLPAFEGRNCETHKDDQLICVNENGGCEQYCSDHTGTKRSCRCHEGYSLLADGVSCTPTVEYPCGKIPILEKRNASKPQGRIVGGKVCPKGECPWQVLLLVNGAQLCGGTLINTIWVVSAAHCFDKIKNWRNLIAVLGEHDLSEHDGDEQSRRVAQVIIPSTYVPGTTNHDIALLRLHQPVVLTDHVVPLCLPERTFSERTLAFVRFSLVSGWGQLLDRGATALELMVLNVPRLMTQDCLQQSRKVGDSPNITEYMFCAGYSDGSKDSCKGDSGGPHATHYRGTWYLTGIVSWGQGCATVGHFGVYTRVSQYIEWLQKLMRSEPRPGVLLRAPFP
Procedure: as §3, §4

Human Factor XII = biological target: T10, Human Factor XII (human, UniProt P00748 20-615); test: as above
T10 construct: also called FXII; HFXII 1212
T10 sequence (looked up): T5 sequence (looked up)
Procedure: as §3, §4

Human Factor X = biological target: T11, Human Factor X (human, UniProt P00742 41-488); test: as above
T11 construct: also called FX; HFX1010
Procedure: as §3, §4

Human Factor Xa Protease = biological target: T12, Human Factor Xa Protease (human, UniProt P00742 41-179; P00742 235-488, limits assumed); test: as above
T12 construct: also called FXa; HFXa 1011
Procedure: as §3, §4

Human Factor IX = biological target: T13, Human Factor IX (human, UniProt P00740 47-461); test: as above
T13 construct: also called FIX; FIX zymogen
Procedure: as §3, §4

Human plasma Kallikrein = biological target: T14, Human plasma Kallikrein (human, UniProt P03952 20-638); test: as above
T14 construct: also called HPKa 1303
Procedure: as §3, §4

[8] = biological target: T15, Human plasma preKallikrein (human, UniProt P03952 20-638); test: as above
T15 construct: also called HPK 1302
Procedure: as §3, §4

Human Factor VII = biological target: T16, Human Factor VII (human, UniProt P08709 61-466); test: as above
T16 construct: also called FVII; HCVII-0030
T16 sequence (looked up): T9 sequence (looked up)
Procedure: as §3, §4

[9] = biological target: Human Factor II (α-thrombin) (human, UniProt P00734 328-622); test: as above
Procedure: as §3, §4

[10] = biological target: T17, Human Factor II (Prothrombin) (human, UniProt P00734 44-622); test: as above
T17 construct: also called FII; lot 41AHG
Procedure: as §3, §4

[11] = biological target: T4, human coagulation Factor XI (FXI) …; test: cell-based or functional assay; remark: listed apart in the source
[12] = biological target: T4, human coagulation Factor XI (FXI) …; test: SPR (ProteOn XPR36), antibody captured by anti-human IgG Fc, FXI as analyte; mean ± SD, N=3
Procedure: as §1, §2

[13] = biological target: T18, rhesus monkey FXI zymogen (rhesus monkey, UniProt F6PJ95 19-624); test: as above
T18 construct: also called Rhesus FXI; NHP FXI
Procedure: as §1, §2

[14] = biological target: T19, cynomolgus monkey FXI zymogen (cynomolgus monkey, UniProt A0A2K5VVW4 19-624); test: as above
T19 construct: also called cyno FXI; NHP FXI
Procedure: as §1, §2

human FXIa [15] = biological target: T3, human FXIa; test: cell-based or functional assay

T18 sequence (F6PJ95 entry or part of it): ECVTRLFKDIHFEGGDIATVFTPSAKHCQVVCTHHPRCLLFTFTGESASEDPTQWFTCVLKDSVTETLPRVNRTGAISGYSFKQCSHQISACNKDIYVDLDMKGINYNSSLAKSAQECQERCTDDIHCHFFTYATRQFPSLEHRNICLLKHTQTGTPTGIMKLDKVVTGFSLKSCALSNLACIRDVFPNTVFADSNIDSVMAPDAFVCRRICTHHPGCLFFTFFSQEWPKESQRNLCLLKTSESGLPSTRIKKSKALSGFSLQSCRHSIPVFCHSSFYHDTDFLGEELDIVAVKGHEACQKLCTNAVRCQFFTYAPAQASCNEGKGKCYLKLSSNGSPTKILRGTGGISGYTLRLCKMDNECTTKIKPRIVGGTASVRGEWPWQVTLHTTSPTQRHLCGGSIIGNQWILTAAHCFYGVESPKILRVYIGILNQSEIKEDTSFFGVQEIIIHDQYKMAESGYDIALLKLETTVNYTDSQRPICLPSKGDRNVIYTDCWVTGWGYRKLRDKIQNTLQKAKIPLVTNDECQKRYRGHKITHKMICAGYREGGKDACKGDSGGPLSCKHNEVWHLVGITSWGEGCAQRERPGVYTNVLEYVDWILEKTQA
T1 sequence (F6PJ95 entry or part of it): as above
T6 sequence (A0A1D5Q7U7 entry or part of it): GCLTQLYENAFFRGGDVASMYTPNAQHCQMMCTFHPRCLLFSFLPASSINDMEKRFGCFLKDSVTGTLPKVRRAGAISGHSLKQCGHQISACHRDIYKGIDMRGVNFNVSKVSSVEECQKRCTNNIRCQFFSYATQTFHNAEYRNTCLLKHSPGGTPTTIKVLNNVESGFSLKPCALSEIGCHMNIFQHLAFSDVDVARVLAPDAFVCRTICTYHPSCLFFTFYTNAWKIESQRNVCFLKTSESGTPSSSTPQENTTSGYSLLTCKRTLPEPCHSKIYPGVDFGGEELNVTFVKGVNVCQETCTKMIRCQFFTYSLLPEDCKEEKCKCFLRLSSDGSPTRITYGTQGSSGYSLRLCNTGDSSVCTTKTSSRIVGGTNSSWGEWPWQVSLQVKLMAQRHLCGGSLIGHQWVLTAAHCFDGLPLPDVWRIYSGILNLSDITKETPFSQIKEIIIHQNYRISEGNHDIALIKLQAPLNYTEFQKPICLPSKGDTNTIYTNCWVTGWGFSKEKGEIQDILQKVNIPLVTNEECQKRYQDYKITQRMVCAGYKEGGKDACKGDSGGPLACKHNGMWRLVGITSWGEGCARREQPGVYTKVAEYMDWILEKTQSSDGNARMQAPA
T2 sequence (A0A2K5VVW4 entry or part of it): as the sequence (F6PJ95 entry or part of it) above, with D101N, K113E, I126V, V191A counted along it
T19 sequence (A0A2K5VVW4 entry or part of it): as the sequence (F6PJ95 entry or part of it) above, with D101N, K113E, I126V, V191A counted along it
T15 sequence (P03952 20-638 limits assumed): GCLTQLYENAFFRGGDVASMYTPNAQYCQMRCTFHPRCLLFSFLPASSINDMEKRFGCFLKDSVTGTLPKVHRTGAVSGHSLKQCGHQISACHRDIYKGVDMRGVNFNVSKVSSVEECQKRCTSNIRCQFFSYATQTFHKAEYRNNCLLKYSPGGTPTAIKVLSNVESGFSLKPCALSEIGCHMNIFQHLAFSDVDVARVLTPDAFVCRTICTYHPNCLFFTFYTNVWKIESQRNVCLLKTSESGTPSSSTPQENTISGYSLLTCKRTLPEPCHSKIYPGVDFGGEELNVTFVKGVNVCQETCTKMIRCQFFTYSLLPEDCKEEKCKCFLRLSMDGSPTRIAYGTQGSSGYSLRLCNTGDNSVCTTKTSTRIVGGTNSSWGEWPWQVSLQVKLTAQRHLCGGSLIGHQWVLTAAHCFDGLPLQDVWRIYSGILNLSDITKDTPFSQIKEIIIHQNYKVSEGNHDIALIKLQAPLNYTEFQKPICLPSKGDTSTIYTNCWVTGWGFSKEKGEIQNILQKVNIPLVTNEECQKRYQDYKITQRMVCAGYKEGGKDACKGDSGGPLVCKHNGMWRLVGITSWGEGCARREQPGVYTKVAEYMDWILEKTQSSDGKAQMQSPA
T14 sequence (P03952 20-638 limits assumed): as above
T8 sequence (A0A2K5VTJ9 entry or part of it): as the sequence (A0A1D5Q7U7 entry or part of it) above, with N24T counted along it

B1: αFXI-18611 IgG4 HC (S228P)(E1)(L105)/LC Kappa (antibody, V domains shown)
VH: EVQLQESGPGLVKPSETLSLTCAVSGYSISSGYFWGWIRQPPGKGLEWIGSILHSGVTYYNPSLKSRVTISVDTSKNQFSLKLSSVTAADTAVYYCARDRTTVSLIEYFQHWGQGTLVTVSS
VL: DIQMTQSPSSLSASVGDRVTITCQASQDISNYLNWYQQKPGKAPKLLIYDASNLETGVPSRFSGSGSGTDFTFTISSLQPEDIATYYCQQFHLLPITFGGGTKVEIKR
notes: Fully human IgG4 (S228P)/kappa; also called αFXI-18611 mAb
- Kd (rhesus monkey FXIa): 0.175 nM
- Kd (cynomolgus monkey FXIa): 0.0892 nM
- Kd (human FXIa [1]): 0.0554 nM
- FXIIa Activation + HK Inhibition (IC50, nM) [2]: 7.6 nM
- FXIIa Activation no HK Inhibition (IC50, nM) [2]: 34 nM
- binding result [3]: no binding (tested: 500 nM)
- binding result [4]: no binding (tested: 500 nM)
- binding result [5]: no binding (tested: 500 nM)
- binding result [6]: no binding (tested: 500 nM)
- binding result [7]: no binding (tested: 500 nM)
- binding result (Human Factor XII): no binding (tested: 500 nM)
- binding result (Human Factor X): no binding (tested: 500 nM)
- binding result (Human Factor Xa Protease): no binding (tested: 500 nM)
- binding result (Human Factor IX): no binding (tested: 500 nM)
- binding result (Human plasma Kallikrein): no binding (tested: 500 nM)
- binding result [8]: no binding (tested: 500 nM)
- binding result (Human Factor VII): no binding (tested: 500 nM)
- binding result [9]: no binding (tested: 500 nM)
- binding result [10]: no binding (tested: 500 nM)
- FXI Autoactivation IC50 nM (on dextran sulfate) [11]: 3.3 nM
- Kd [12]: 0.1 nM
- Kd [13]: 0.0529 nM
- Kd [14]: 0.18 nM
- FXIa IC50 nM (native, full-length substrate; activation of FIX to FIXa) (human FXIa [15]): 1 nM
- FXIa IC50 nM (tri-peptide substrate) (human FXIa [15]): > 1000 nM

B2: αFXI-18623p IgG4 HC (S228P)(Q1)/LC Kappa (antibody, V domains shown)
VH: QVQLQESGPGLVKPSQTLSLTCTVSGGSIYSGAYYWSWIRQHPGKGLEWIGSIHYSGLTYYNPSLKSRVTISVDTSKNQFSLKLSSVTAADTAVYYCARDVDDSSGDEHYGMDVWGQGTTVTVSS
VL: DIQMTQSPSSVSASVGDRVTITCRASQGIDSWLAWYQQKPGKAPKLLIYAASSLQSGVPSRFSGSGSGTDFTLTISSLQPEDFATYYCQQYHIVPITFGGGTKVEIKR
notes: Fully human IgG4 (S228P)/kappa; also called αFXI-18623p-IgG4 (S228P) (Q1)/LC Kappa
- Kd (rhesus monkey FXIa): 0.149 nM
- Kd (cynomolgus monkey FXIa): 0.0195 nM
- Kd (human FXIa [1]): 0.0374 nM
- FXIIa Activation + HK Inhibition (IC50, nM) [2]: 6 nM
- FXIIa Activation no HK Inhibition (IC50, nM) [2]: 14 nM
- binding result [3]: no binding (tested: 500 nM)
- binding result [4]: no binding (tested: 500 nM)
- binding result [5]: no binding (tested: 500 nM)
- binding result [7]: no binding (tested: 500 nM)
- binding result (Human Factor XII): no binding (tested: 500 nM)
- binding result (Human Factor X): no binding (tested: 500 nM)
- binding result (Human Factor Xa Protease): no binding (tested: 500 nM)
- binding result (Human Factor IX): no binding (tested: 500 nM)
- binding result (Human plasma Kallikrein): no binding (tested: 500 nM)
- binding result [8]: no binding (tested: 500 nM)
- binding result (Human Factor VII): no binding (tested: 500 nM)
- binding result [9]: no binding (tested: 500 nM)
- binding result [10]: no binding (tested: 500 nM)
- FXI Autoactivation IC50 nM (on dextran sulfate) [11]: 5.5 nM
- Kd [12]: 0.0226 nM
- Kd [13]: 0.0722 nM
- Kd [14]: 0.013 nM
- FXIa IC50 nM (native, full-length substrate; activation of FIX to FIXa) (human FXIa [15]): 0.4 nM
- FXIa IC50 nM (tri-peptide substrate) (human FXIa [15]): > 1000 nM
